From the Human Domainome abundance scans (Beltran et al. 2025)

B1: Ubiquitin-protein ligase residues 30 to 86; numbered along this chain, Q05086 (parent)
chain: KHLIERYYHQLTEGCGNEACTNEFCASCPTFLRMDNNAAAIKALELYKINAKLCDPH

Variants of: B1
Assay: abundance fitness (aPCA) (normalised: wild type 0, dead -1); higher = more abundant; growth selection in yeast, the domain comes from the species named
Settings: Homo sapiens

Abundance fitness, by site and new letter:
L11: D -0.834 | P -0.865 | K -0.848 | W -0.904 | C -0.153 | S -0.425 | Q -0.41 | Y -0.566 | E -0.843 | G -0.681 | T -0.201 | V -0.036 | M -0.14 | N -0.774 | R -0.872
Y8: P -0.757 | Q 0.116 | I 0.018 | W -0.181 | K 0.054 | V -0.015 | G -0.212 | T 0.091 | L 0.045 | R 0.028 | H -0.015 | F -0.138 | A -0.06 | E -0.027 | D -0.513 | N -0.097 | S -0.06
G16: P -0.132 | E -0.049 | S -0.062 | W -0.191 | I -0.33 | K -0.064 | L -0.11 | M -0.179 | Y -0.117 | D -0.041 | A -0.049 | F -0.221 | C -0.049 | V -0.2 | Q -0.059 | R -0.127 | N -0.061
N22: M -0.478 | I -0.492 | Y -0.277 | H -0.345 | T -0.12 | P -0.916 | F -0.418 | K -0.831 | Q -0.286 | S -0.033 | W -0.73 | V -0.301 | D -0.602 | G -0.318 | R -0.638 | C -0.532 | E -0.236 | L -0.727
Q10: E -0.868 | C -0.274 | P -0.86 | A -0.13 | W -0.765 | S -0.093 | H -0.148 | V -0.253 | N -0.127 | Y -0.277 | R -0.07 | F -0.329 | D -0.485 | K -0.5 | T -0.123 | I -0.15 | G -0.311 | L -0.198
A19: C -0.12 | S -0.008 | L -0.045 | Y -0.1 | F -0.031 | K -0.001 | D 0.023 | E 0.004 | R -0.022 | H -0.006 | G -0.015 | P -0.084 | V -0.013 | W -0.073 | M 0.011 | N -0.015 | I -0.102
N17: K 0.027 | S -0.034 | F -0.091 | D -0.04 | V -0.05 | L -0.071 | Y -0.042 | I -0.067 | M -0.096 | W 0.005 | C -0.037 | Q -0.087 | R -0.042 | T 0.014 | P -0.091 | G -0.008 | H -0.008 | A -0.001 | E -0.029
G14: R -0.966 | S -0.946 | W -0.942 | A -0.866 | H -0.957 | T -0.848 | Y -1.02 | D -0.945 | F -0.865 | E -0.919 | V -0.973 | N -0.849 | Q -1.09 | L -0.967 | I -1.02
T21: V -0.005 | Y -0.458 | P -0.076 | E 0.043 | C -0.015 | W -0.105 | I -0.033 | A 0.029 | L -0.086 | K 0.059 | N 0.067 | Q -0.046 | M -0.129 | D -0.011 | F -0.008 | R -0.038 | H 0.018 | G -0.022 | S -0.037
E5: I -0.142 | T -0.005 | S -0.01 | R 0.015 | H -0.04 | K 0.037 | M -0.105 | N 0.058 | P -0.068 | G -0.042 | A -0.116 | F -0.112
